Data as given in patent publication EP4667483A1 (JCR Pharmaceuticals Co., Ltd., dated 2024).
Numbered stars: 1 amine (or outer) side, 2 acyl side, 3 side chain; on linkers, the order of the positions; unused ones are H or OH. Bridge positions count the residues as written; N and C are the ends. Square brackets hold non-standard residues; d marks the D form. Primed or numbered codes have the meaning given here. Ends that are not written are not given here. F4aao = 4-(carboxymethoxy)-L-phenylalanine, O=C([C@H](Cc1ccc(OCC(=O)[*:3])cc1)N[*:1])[*:2]; NMePhe(4-COOH) = CN[C@@H](Cc1ccc(C(=O)O)cc1)C(=O)O; Tyr(Me) = COc1ccc(C[C@H](N[*:1])C(=O)[*:2])cc1; NMePhe(3-Cl) = CN[C@@H](Cc1cccc(Cl)c1)C(=O)O; 3Pal(6-NH2) = Nc1ccc(C[C@H](N)C(=O)O)cn1; NMeW = CN[C@@H](Cc1c[nH]c2ccccc12)C(=O)O; Lys(N3) = [N-]=[N+]=NCCCC[C@H](N)C(=O)O; NMeY = CN[C@@H](Cc1ccc(O)cc1)C(=O)O; NMeF = CN[C@@H](Cc1ccccc1)C(=O)O; F3COO(PEG4c) = not defined here; PEG4c(3) = PEG4 linker acid; PEG4c″ = not defined here

B1: 894_0619 (peptide)
peptide: {CH2CO}-AV[NMeF]V[NMeW]N[3Pal(6-NH2)]YI[code s]KRY[NMeY]C
modifications: thioether N-15; also: linker PEG4c attached, place not given here
notes: Position 10 is printed as lower-case 's'
B2: 894_0620 (peptide)
peptide: {CH2CO}-AV[NMePhe(3-Cl)]V[NMeW]N[3Pal(6-NH2)]YI[code s]KRY[NMeY]C
modifications: thioether N-15; also: linker PEG4c attached, place not given here
notes: as for B1
B3: 894_3435 (peptide)
peptide: AVXVWNYYIIXRYXC
modifications: as printed: A-V-MeF-V-W-N-Y-Y-I-I-E(PEG8Me)-R-Y-MeY-C; linker G-KN3; cyclic (ClAc-Ala1 thioether to Cys15)
B4: 894_0636 (peptide)
peptide: AVXVXNYXIIKRFXC
modifications: as printed: A-V-MeF3C-V-MeW-N-Y-F4OMe-I-I-K-R-F-MeY-C; linker PEG4c-NH2; cyclic (ClAc-Ala1 thioether to Cys15)
B5: 894_0637 (peptide)
peptide: AVXVXNYXIIQRFXC
modifications: as printed: A-V-MeF3C-V-MeW-N-Y-F4OMe-I-I-Q-R-F-MeY-C; linker PEG4c-NH2; cyclic (ClAc-Ala1 thioether to Cys15)
B6: 894_3486 (peptide)
peptide: {CH2CO}-AV[NMeF]V[NMeW]N[3Pal(6-NH2)]YIIKRY[NMePhe(4-COOH)]CG[Lys(N3)]-NH2
modifications: thioether N-15
SMILES: CC[C@H](C)[C@@H]1NC(=O)[C@H](Cc2ccc(O)cc2)NC(=O)[C@H](Cc2ccc(N)nc2)NC(=O)[C@H](CC(N)=O)NC(=O)[C@H](Cc2c[nH]c3ccccc23)N(C)C(=O)[C@H](C(C)C)NC(=O)[C@H](Cc2ccccc2)N(C)C(=O)[C@H](C(C)C)NC(=O)[C@H](C)NC(=O)CSC[C@@H](C(=O)NCC(=O)N[C@@H](CCCCN=[N+]=[N-])C(N)=O)NC(=O)[C@H](Cc2ccc(C(=O)O)cc2)N(C)C(=O)[C@H](Cc2ccc(O)cc2)NC(=O)[C@H](CCCNC(=N)N)NC(=O)[C@H](CCCCN)NC(=O)[C@H]([C@@H](C)CC)NC1=O
B7: 894_3488 (peptide)
peptide: AVXVXNYYIIKRXXC
modifications: as printed: A-V-MeF-V-MeW-N-Y-Y-I-I-K-R-F3COO(PEG4c)-MeF4COO-C; linker G-KN3-NH2; cyclic (ClAc-Ala1 thioether to Cys15)
B8: 894_3498 (peptide)
peptide: AVXVXNXYIIKRYXC
modifications: as printed: A-V-MeF-V-MeW-N-3Py6NH2-Y-I-I-K-R-Y-MeF4COO-C; linker G-de-de-de-ds-ds-KN3-NH2; cyclic (ClAc-Ala1 thioether to Cys15)

The binders below were run against T1, human transferrin receptor (hTfR) (human, UniProt P02786 89-760) (assay: SPR, KD at pH 6.0 over KD at pH 7.4).
T1 construct: Recombinant hTfR; at pH 7.4 captured on the chip by an anti-His tag antibody, at pH 6.0 immobilized on an NTA chip, so it carries a His tag; also called human TfR; TfR1
T1 sequence (P02786 89-760 limits assumed): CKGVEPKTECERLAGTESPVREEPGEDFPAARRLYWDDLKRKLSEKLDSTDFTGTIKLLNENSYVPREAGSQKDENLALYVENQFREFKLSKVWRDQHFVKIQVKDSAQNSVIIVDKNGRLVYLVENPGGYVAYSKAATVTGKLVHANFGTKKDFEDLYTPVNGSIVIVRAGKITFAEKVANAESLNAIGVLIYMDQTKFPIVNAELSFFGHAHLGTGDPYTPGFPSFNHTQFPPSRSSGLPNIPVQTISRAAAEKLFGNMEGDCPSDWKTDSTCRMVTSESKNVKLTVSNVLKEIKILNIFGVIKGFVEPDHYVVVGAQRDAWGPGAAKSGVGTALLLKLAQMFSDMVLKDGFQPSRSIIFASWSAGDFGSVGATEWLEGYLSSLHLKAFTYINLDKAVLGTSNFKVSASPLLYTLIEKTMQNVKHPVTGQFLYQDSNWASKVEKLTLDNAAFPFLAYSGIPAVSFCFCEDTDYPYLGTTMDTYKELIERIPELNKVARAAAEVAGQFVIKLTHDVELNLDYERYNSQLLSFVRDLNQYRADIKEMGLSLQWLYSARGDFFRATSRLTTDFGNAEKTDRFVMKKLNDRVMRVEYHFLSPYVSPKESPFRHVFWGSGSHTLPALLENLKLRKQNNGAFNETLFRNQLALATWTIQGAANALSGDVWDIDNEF
For B1, the “dependency KD pH6.0/7.4” value was 4.57. B2 was tested, and the “dependency KD pH6.0/7.4” value was 3.26. B3 was tested, and the “dependency KD pH6.0/7.4” value was 3.55.

Biological target: T1, human transferrin receptor (hTfR)
Test: SPR, KD at pH 6.0 over KD at pH 7.4
Remark: another data set of the same source
With {CH2CO}-AV[NMePhe(3-Cl)]V[NMeW]NY[F4aao]IIKRF[NMePhe(4-COOH)](PEG4c(3))C-{PEG4c(3)-NH2} (thioether N-15) [894_0647] the “dependency KD pH6.0/7.4” value was 5.35. With {CH2CO}-AV[NMePhe(3-Cl)]V[NMeW]NY[F4aao]IIKRF[NMeY]C-{PEG4c(3)-NH2} (thioether N-15) [894_0644] the “dependency KD pH6.0/7.4” value was 2.37. B4 was tested, and the “dependency KD pH6.0/7.4” value was 3.58. With B5 the “dependency KD pH6.0/7.4” value was 5.66. With {CH2CO}-AV[NMePhe(3-Cl)]V[NMeW]NR[Tyr(Me)]IIQRF[NMeY]C-{PEG4c(3)-NH2} (thioether N-15) [894_0642] the “dependency KD pH6.0/7.4” value was 3.67. {CH2CO}-AV[NMePhe(3-Cl)]V[NMeW]NR[Tyr(Me)]IIKRF[NMeY]C-{PEG4c″-NH2} (thioether N-15; reading uncertain) [894_0641] was tested, and the “dependency KD pH6.0/7.4” value was 3.49.

Biological target: T1, human transferrin receptor (hTfR)
Test: SPR, KD at pH 6.0 over KD at pH 7.4
Remark: another data set of the same source
For B6, the “dependency KD pH6.0/7.4” value was 4.73. {CH2CO}-AV[NMeF]VWNRYIIRR[F3COO(PEG4c)][NMePhe(4-COOH)]CG[Lys(N3)]-NH2 (thioether N-15; reading uncertain) [894_3491] was tested, and the “dependency KD pH6.0/7.4” value was 3.73. B7 was tested, and the “dependency KD pH6.0/7.4” value was 3.22. B8 was tested, and the “dependency KD pH6.0/7.4” value was 7.71.

Each binder was assayed against T1, human transferrin receptor (hTfR) (assay: SPR, koff at pH 6.0 over koff at pH 7.4).
With B1 the “dependency koff pH6.0/7.4” value was 12.2. With B2 the “dependency koff pH6.0/7.4” value was 12.5. For B3, the “dependency koff pH6.0/7.4” value was 6.89.

Biological target: T1, human transferrin receptor (hTfR)
Test: SPR, koff at pH 6.0 over koff at pH 7.4
Remark: another data set of the same source
In the case of {CH2CO}-AV[NMePhe(3-Cl)]V[NMeW]NY[F4aao]IIKRF[NMePhe(4-COOH)](PEG4c(3))C-{PEG4c(3)-NH2} (thioether N-15) [894_0647], the “dependency koff pH6.0/7.4” value is reported as 9.27. For {CH2CO}-AV[NMePhe(3-Cl)]V[NMeW]NY[F4aao]IIKRF[NMeY]C-{PEG4c(3)-NH2} (thioether N-15) [894_0644], the “dependency koff pH6.0/7.4” value was 4.92. With B4 the “dependency koff pH6.0/7.4” value was 5.55. B5 was tested, and the “dependency koff pH6.0/7.4” value was 9.23. With {CH2CO}-AV[NMePhe(3-Cl)]V[NMeW]NR[Tyr(Me)]IIQRF[NMeY]C-{PEG4c(3)-NH2} (thioether N-15) [894_0642] the “dependency koff pH6.0/7.4” value was 4.85. With {CH2CO}-AV[NMePhe(3-Cl)]V[NMeW]NR[Tyr(Me)]IIKRF[NMeY]C-{PEG4c″-NH2} (thioether N-15; reading uncertain) [894_0641] the “dependency koff pH6.0/7.4” value was 3.44.

Biological target: T1, human transferrin receptor (hTfR)
Test: SPR, koff at pH 6.0 over koff at pH 7.4
Remark: another data set of the same source
B6 was tested, and the “dependency koff pH6.0/7.4” value was 8.92. With {CH2CO}-AV[NMeF]VWNRYIIRR[F3COO(PEG4c)][NMePhe(4-COOH)]CG[Lys(N3)]-NH2 (thioether N-15; reading uncertain) [894_3491] the “dependency koff pH6.0/7.4” value was 2.44. With B7 the “dependency koff pH6.0/7.4” value was 5.15. With B8 the “dependency koff pH6.0/7.4” value was 10.8.

The binders below were run against T1, human transferrin receptor (hTfR) (assay: SPR (Biacore T200), pH 6.0, hTfR on chip).
For B1, the Kd was 126 nM. Binder B2 has a Kd of 16.2 nM. Binder B3 has a Kd of 41.2 nM.

Each binder was assayed against T1, human transferrin receptor (hTfR) (assay: SPR (Biacore T200), pH 7.4, hTfR on chip).
Work on B1 yielded a Kd of 27.6 nM. Work on B2 yielded a Kd of 4.97 nM. With B3 the Kd was 11.6 nM.

Biological target: T1, human transferrin receptor (hTfR)
Test: SPR (Biacore T200), pH 6.0, hTfR on chip
Remark: another data set of the same source
{CH2CO}-AV[NMePhe(3-Cl)]V[NMeW]NY[F4aao]IIKRF[NMePhe(4-COOH)](PEG4c(3))C-{PEG4c(3)-NH2} (thioether N-15) [894_0647] gave a Kd of 0.76 nM. {CH2CO}-AV[NMePhe(3-Cl)]V[NMeW]NY[F4aao]IIKRF[NMeY]C-{PEG4c(3)-NH2} (thioether N-15) [894_0644] was tested, and the Kd was 0.764 nM. With B4 the Kd was 0.81 nM. B5 was tested, and the Kd was 4.86 nM. Work on {CH2CO}-AV[NMePhe(3-Cl)]V[NMeW]NR[Tyr(Me)]IIQRF[NMeY]C-{PEG4c(3)-NH2} (thioether N-15) [894_0642] yielded a Kd of 75.5 nM. In the case of {CH2CO}-AV[NMePhe(3-Cl)]V[NMeW]NR[Tyr(Me)]IIKRF[NMeY]C-{PEG4c″-NH2} (thioether N-15; reading uncertain) [894_0641], the Kd is reported as 13.3 nM.

Biological target: T1, human transferrin receptor (hTfR)
Test: SPR (Biacore T200), pH 7.4, hTfR on chip
Remark: another data set of the same source
With {CH2CO}-AV[NMePhe(3-Cl)]V[NMeW]NY[F4aao]IIKRF[NMePhe(4-COOH)](PEG4c(3))C-{PEG4c(3)-NH2} (thioether N-15) [894_0647] the Kd was 0.142 nM. For {CH2CO}-AV[NMePhe(3-Cl)]V[NMeW]NY[F4aao]IIKRF[NMeY]C-{PEG4c(3)-NH2} (thioether N-15) [894_0644], the Kd was 0.322 nM. B4 was tested, and the Kd was 0.226 nM. B5 gave a Kd of 0.859 nM. In the case of {CH2CO}-AV[NMePhe(3-Cl)]V[NMeW]NR[Tyr(Me)]IIQRF[NMeY]C-{PEG4c(3)-NH2} (thioether N-15) [894_0642], the Kd is reported as 20.6 nM. With {CH2CO}-AV[NMePhe(3-Cl)]V[NMeW]NR[Tyr(Me)]IIKRF[NMeY]C-{PEG4c″-NH2} (thioether N-15; reading uncertain) [894_0641] the Kd was 3.81 nM.

Biological target: T1, human transferrin receptor (hTfR)
Test: SPR (Biacore T200), pH 6.0, hTfR on chip
Remark: another data set of the same source
B6 showed a Kd of 13.9 nM. {CH2CO}-AV[NMeF]VWNRYIIRR[F3COO(PEG4c)][NMePhe(4-COOH)]CG[Lys(N3)]-NH2 (thioether N-15; reading uncertain) [894_3491] gave a Kd of 799 nM. For B7, the Kd was 5.15 nM. For B8, the Kd was 145 nM.

Biological target: T1, human transferrin receptor (hTfR)
Test: SPR (Biacore T200), pH 7.4, hTfR on chip
Remark: another data set of the same source
B6 showed a Kd of 2.94 nM. Binder {CH2CO}-AV[NMeF]VWNRYIIRR[F3COO(PEG4c)][NMePhe(4-COOH)]CG[Lys(N3)]-NH2 (thioether N-15; reading uncertain) [894_3491] has a Kd of 214 nM. For B7, the Kd was 1.6 nM. Binder B8 has a Kd of 18.8 nM.
